From US20230212587A1, “Mutant Hydroxyphenylpyruvate Dioxygenase Polypeptide, Encoding Gene Thereof and Use Therefor” (Beijing Dabeinong Biotechnology Co., Ltd., priority 2019, published 2023)
Changes are numbered by the printed parent chain. Names may count otherwise.

B1: GsHPPD-02: native Gossypium hirsutum HPPD, SEQ ID NO: 33 (protein, listed as Gossypium hirsutum)
chain: MVQTNQSGSGNDFKLVGFSNFVRSNPKSDRFTVKRFHHIEFWCTDATNVARRFSWGLGMQFVAKSDLSTGNLTHASYLLRSRDLNFLFTAPYSPSIAVAQNLSPQSTASIPSFDHSLCRSFAATHGLGVRAIAIEVDDAETAFTTSVTHGALPFCPPTPLGDVATIAEVKLYGDVVLRYVSYTTTINSDHDFLPGFEKIEDTLSYPLDYGLRRLDHAVGNVPELGPAVSYVKSFTGFHEFAEFTAEDVGTSESGLNSVVLANNEEMVLLPMNEPVFGTKRKSQIQTYLEHNEGAGVQHLALVSEDIFKTLREMRKRSFVGGFEFMPSPPPTYYKKLKQRAGDILSDEQIKECEELGILVDRDDQGTLLQIFTKPVGDRPTIFIEIIQRIGCMVKDEEGKQYQKGGCGGFGKGNFSELFKSIEEYEKSLEAKQSQNP
modifications: GsHPPD Amino Acid Sequence
B2: GsHPPDm-F372A-02: Gossypium hirsutum HPPD mutant F372A, SEQ ID NO: 36 (protein)
chain: B1 chain with F371A
modifications: GsHPPDm-F372A Amino Acid Sequence
B3: CaHPPD-02: native Cicer arietinum HPPD, SEQ ID NO: 81 (protein, listed as Cicer arietinum)
chain: MGTIETQTGFKLVGFNNFVRTNPKSDRFKVKRFHHVEFWCPDATNTARRFSWGLGMPIVAKSDLSTGNQTHASYLLRSGDLNFLFTAAYSPSISLSAPHPTASIPSFSAPTSFAFSASHGLGVRAVAIEVDDAEFAYTTSVNHGAIPSSPPVVLDNRVKLAEVQLYGDVVLRYVSYNDPIETSNPNPNHWFLPGFEPVEETSSNQSIDFGIQRLDHAVGNVPELSSALNYVKQFTGFHEFAEFTAEDVGTSESGLNSTVLANNEETVLLPMNEPVYGTKRKSQIQTYLEHNEGAGLQHLALMSNDIFKTLREMRKRSGIGGFEFMPSPPPTYYSNLKKRVGDVLNDEQIKECEELGILVDKDDQGTLLQIFTKPVGDRPTIFIEIIQRVGCMLKDDEGKEYQKGGCGGFGKGNFSELFKSIEEYEKTLEIKRTA
modifications: CaHPPD Amino Acid Sequence
B4: CaHPPD-F372A-02: Cicer arietinum HPPD mutant F372A, SEQ ID NO: 84 (protein)
chain: B3 chain with F371A
modifications: CaHPPDm-F372A Amino Acid Sequence
B5: GmHPPD-02: native Glycine max HPPD, SEQ ID NO: 75 (protein)
chain: MPMYTPSLSAPSSNHIQPSVTLPLYITTTKLNLKQQHHTTPMPIPMCNEIQAQAQAQAQPGFKLVGFKNFVRTNPKSDRFQVNRFHHIEFWCTDATNASRRFSWGLGMPIVAKSDLSTGNQIHASYLLRSGDLSFLFSAPYSPSLSAGSSAASSASIPSFDAATCLAFAAKHGFGVRAIALEVADAEAAFSASVAKGAEPASPPVLVDDRTGFAEVRLYGDVVLRYVSYKDAAPQAPHADPSRWFLPGFEAAASSSSFPELDYGIRRLDHAVGNVPELAPAVRYLKGFSGFHEFAEFTAEDVGTSESGLNSVVLANNSETVLLPLNEPVYGTKRKSQIETYLEHNEGAGVQHLALVTHDIFTTLREMRKRSFLGGFEFMPSPPPTYYANLHNRAADVLTVDQIKQCEELGILVDRDDQGTLLQIFTKPVGDRPTIFIEIIQRIGCMVEDEEGKVYQKGACGGFGKGNFSELFKSIEEYEKTLEAKRTA
modifications: Glycine max; GmHPPD Amino Acid Sequence
B6: GmHPPDm-F372A-02: Glycine max HPPD mutant F372A, SEQ ID NO: 78 (protein)
chain: B5 chain with F425A
modifications: GmHPPDm-F372A Amino Acid Sequence

The molecules below were run on Arabidopsis thaliana T1 plants (assay: Topramezone tolerance of transgenic Arabidopsis thaliana T1 plants (pesticide damage grade by bleached leaf area, score, resistance evaluation)). Conditions: HPPDs from different species; number of plants (of 16) in this grade; topramezone 25 g ai/ha (1x), 7 DAT.
Assay type: in vivo
Method in brief: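 Herbicide tolerance was judged per plant on a bleaching scale (grade 0 no bleaching to grade 3 fully bleached) 7 DAT. Topramezone doses were 0, 25, 50 and 100 g ai/ha on 18-day-old T1 and wild-type plants.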

| Molecule | Classification and statistics of pesticide damage grade Grade 0 | Classification and statistics of pesticide damage grade Grade 1 | Classification and statistics of pesticide damage grade Grade 2 | Classification and statistics of pesticide damage grade Grade 3 |
| --- | --- | --- | --- | --- |
| B1 | 0 | 0 | 0 | 16 |
| B2 | 16 | 0 | 0 | 0 |
| B3 | 0 | 0 | 0 | 16 |
| B4 | 0 | 13 | 3 | 0 |
| B5 | 0 | 0 | 0 | 16 |
| B6 | 0 | 12 | 4 | 0 |

Same assay, conditions: HPPDs from different species; number of plants (of 16) in this grade; topramezone 100 g ai/ha (4x), 7 DAT

| Molecule | Classification and statistics of pesticide damage grade Grade 0 | Classification and statistics of pesticide damage grade Grade 1 | Classification and statistics of pesticide damage grade Grade 2 | Classification and statistics of pesticide damage grade Grade 3 |
| --- | --- | --- | --- | --- |
| B1 | 0 | 0 | 0 | 16 |
| B2 | 0 | 0 | 0 | 16 |
| B3 | 0 | 0 | 0 | 16 |
| B4 | 0 | 0 | 0 | 16 |
| B5 | 0 | 0 | 0 | 16 |
| B6 | 0 | 0 | 0 | 16 |

Same assay, conditions: HPPDs from different species; score for pesticide damage 0-100; topramezone 25 g ai/ha (1x), 7 DAT

| Molecule | Scores |
| --- | --- |
| B1 | 100 |
| B2 | 0 |
| B3 | 100 |
| B4 | 40 |
| B5 | 100 |
| B6 | 42 |

Same assay, conditions: HPPDs from different species; score for pesticide damage 0-100; topramezone 100 g ai/ha (4x), 7 DAT

| Molecule | Scores |
| --- | --- |
| B1 | 100 |
| B2 | 100 |
| B3 | 100 |
| B4 | 100 |
| B5 | 100 |
| B6 | 100 |

Same assay, conditions: HPPDs from different species; topramezone 25 g ai/ha (1x), 7 DAT

| Molecule | Resistance evaluation |
| --- | --- |
| B1 | non-resistant (non-resistant plants (scores 68-100)) |
| B2 | highly resistant (highly resistant plants (scores 0-15)) |
| B3 | non-resistant (non-resistant plants (scores 68-100)) |
| B4 | poorly resistant (poorly resistant plants (scores 34-67)) |
| B5 | non-resistant (non-resistant plants (scores 68-100)) |
| B6 | poorly resistant (poorly resistant plants (scores 34-67)) |

Same assay, conditions: HPPDs from different species; topramezone 100 g ai/ha (4x), 7 DAT

| Molecule | Resistance evaluation |
| --- | --- |
| B1 | non-resistant (non-resistant plants (scores 68-100)) |
| B2 | non-resistant (non-resistant plants (scores 68-100)) |
| B3 | non-resistant (non-resistant plants (scores 68-100)) |
| B4 | non-resistant (non-resistant plants (scores 68-100)) |
| B5 | non-resistant (non-resistant plants (scores 68-100)) |
| B6 | non-resistant (non-resistant plants (scores 68-100)) |
